The record followed here is patent publication US20240101710A1.

The target in experiment [1] is anti-BCMA CAR clone P5A2 expressed on the cell surface. The experiment is described as follows: flow cytometry, SSC against CAR (anti-id) staining, cell line Anti-BCMA CAR clone P5A2, hybridoma-derived H6 at '0.063G' as printed; Q4 prints 74.0.
For experiment [2] the target is unchanged. The experiment can be described thus: flow cytometry, anti-id staining on the PE-A axis against APC-A, Anti-BCMA CAR Clone P5A2 cells; Q2 prints 0.42, Q4 33.1, Q1 0.15.
Experiment [3] has as its target anti-BCMA scFv P5A2. The experiment can be described thus: Biacore (SPR); H6 purified from hybridoma.
For experiment [4], the target named is anti-BCMA CAR clone P5A2 expressed on the cell surface. The experiment is described as follows: flow cytometry, SSC against CAR (anti-id) staining, cell line Anti-BCMA CAR clone P5A2, recombinant H6 at '0.063G' as printed; Q4 prints 72.4.
Experiment [5] has as its target anti-BCMA scFv P5A2. The experiment is described as follows: Biacore (SPR); recombinant H6.

anti-BCMA CAR clone P5A2 expressed on the cell surface, sequence (chain, as listed by the source limits assumed): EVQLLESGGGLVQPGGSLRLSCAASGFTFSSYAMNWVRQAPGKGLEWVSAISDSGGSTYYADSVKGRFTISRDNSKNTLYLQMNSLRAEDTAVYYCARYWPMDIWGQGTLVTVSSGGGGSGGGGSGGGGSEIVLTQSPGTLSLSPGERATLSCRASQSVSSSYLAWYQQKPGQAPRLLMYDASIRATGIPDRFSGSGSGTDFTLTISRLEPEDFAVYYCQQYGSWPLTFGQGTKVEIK

B1: anti-idiotypic antibody clone E2008.51H1.H6 (H6) (antibody, V domains shown)
VH: QVTLKESGPGILQPSQTLSLTCSFSGFSLNTSAMGVGWIRQPSGKGLEWLAHIWWNDDHYYNPALKSRVTISKDASNNQVFLKIASVVTADTATYYCARSIAPVVPTPFAYWGQGTLVTVSA
VL: DIQMTQSSSSFSVSLGDRVTITCKASEDIYNRLAWFQQKPGNAPRLLISGATRLETGVPSRFSGSGSGKDYTLSITSLQTEDVGTYYCQQYWSSSWTFGGGTKLEIK
In experiment [1], B1 showed a percent of cells in CAR-positive gate Q3 of 26%. The molecule further showed a percent of cells in anti-id-positive quadrant Q3 in experiment [2] of 66.3%. Also, in the experiment with anti-BCMA scFv P5A2 [3], the Kd amounted to 3.73 nM, the koff was 0.00693 s⁻¹, the kon was 1.86e+06 M⁻¹ s⁻¹ and the t1/2 was 1.67 min. The percent of cells in CAR-positive gate Q3 in experiment [4] was found to be 27.6%. In the experiment with anti-BCMA scFv P5A2 [5], the Kd is 3.71 nM, the koff is 0.00705 s⁻¹, the kon amounted to 1.9e+06 M⁻¹ s⁻¹ and the t1/2 is 1.64 min.
